The record followed here is article PMC5445526.

For orientation: stoichiometry N means the number of molecules, sites or subunits per partner or assembly.

The target in data set [1] is BXA-(GB1)2. Put plainly: MALDI-TOF mass spectrometry.
Data set [2] deals with BXA-(GB1)2. The experiment in a line: SEC + other: SDS-PAGE with gel densitometry.
Data set [3] addresses BXA-(GB1)2. The experiment in a line: SDS-PAGE with gel densitometry.
Data set [4] can be described thus: SEC. On the technique in general: SEC sorts molecules by how far they enter the pores of the column.
Data set [5] addresses BXA-(GB1)2. The experiment in a line: SEC.
In data set [6] the target is (GB1)2-AXB. Put plainly: MALDI-TOF mass spectrometry.
The target in data set [7] is (GB1)2-AXB. Put plainly: SEC + other: SDS-PAGE with gel densitometry.
The target in data set [8] is (GB1)2-AXB. The experiment in a line: SDS-PAGE with gel densitometry.
The target in data set [9] is (GB1)2-AXB. The experiment in a line: SEC.
Data set [10] has as its target AXB-(GB1)2. The experiment in a line: MALDI-TOF mass spectrometry.
The target of data set [11] is AXB-(GB1)2. Put plainly: SEC + other: SDS-PAGE with gel densitometry.
Data set [12] has as its target AXB-(GB1)2. Put plainly: SDS-PAGE with gel densitometry.
The target in data set [13] is AXB-(GB1)2. Put plainly: SEC.
Data set [14] has as its target (GB1)2-BXA. Put plainly: MALDI-TOF mass spectrometry.
Data set [15] concerns the target (GB1)2-BXA. Put plainly: SEC + other: SDS-PAGE with gel densitometry.
Data set [16] deals with (GB1)2-BXA. Put plainly: SDS-PAGE with gel densitometry.
Data set [17] has as its target (GB1)2-BXA. The experiment in a line: SEC.

For the substance BXA-(GB1)2, the stoichiometry N in data set [1] and in data set [5] was 2 in each case. The overall catenation efficiency (%) in data set [2] is 83%. Moreover, the dimer content by SDS-PAGE densitometry (%) in [3] was found to be 86%. The substance also came in with a dimer content by SEC (%) in [4] of 97%.
Take (GB1)2-AXB: the stoichiometry N in data set [6] and in data set [9] was 2 in each case. The overall catenation efficiency (%) in [7] was determined as 73%. In [8], the dimer content by SDS-PAGE densitometry (%) stood at 93%. Further, the dimer content by SEC (%) in data set [4] came to 78%.
As for AXB-(GB1)2, the stoichiometry N in data set [10] and in data set [13] was 2 each time. Besides, the overall catenation efficiency (%) in data set [11] was 66%. Besides, the dimer content by SDS-PAGE densitometry (%) in data set [12] was found to be 80%. In data set [4], this substance registered a dimer content by SEC (%) of 82%.
(GB1)2-BXA: the stoichiometry N in data set [14] and in [17] was 2 throughout. Moreover, the overall catenation efficiency (%) in data set [15] is 76%. Besides, the dimer content by SDS-PAGE densitometry (%) in data set [16] is 83%. In addition, the dimer content by SEC (%) in data set [4] is 92%.
